This note sets out measurements from publication PMC7144908.

The target in this series is SV40 large T antigen (Tag) (Simian virus 40) (UniProt P03070). The experiment in a line: DSF.

The Kd is the free concentration of one partner at which half of the binding sites on the other are occupied at equilibrium, for simple one-to-one binding. Higher therefore signals lower affinity.

SV40 large T antigen (Tag) (Simian virus 40), sequence (P03070 whole entry): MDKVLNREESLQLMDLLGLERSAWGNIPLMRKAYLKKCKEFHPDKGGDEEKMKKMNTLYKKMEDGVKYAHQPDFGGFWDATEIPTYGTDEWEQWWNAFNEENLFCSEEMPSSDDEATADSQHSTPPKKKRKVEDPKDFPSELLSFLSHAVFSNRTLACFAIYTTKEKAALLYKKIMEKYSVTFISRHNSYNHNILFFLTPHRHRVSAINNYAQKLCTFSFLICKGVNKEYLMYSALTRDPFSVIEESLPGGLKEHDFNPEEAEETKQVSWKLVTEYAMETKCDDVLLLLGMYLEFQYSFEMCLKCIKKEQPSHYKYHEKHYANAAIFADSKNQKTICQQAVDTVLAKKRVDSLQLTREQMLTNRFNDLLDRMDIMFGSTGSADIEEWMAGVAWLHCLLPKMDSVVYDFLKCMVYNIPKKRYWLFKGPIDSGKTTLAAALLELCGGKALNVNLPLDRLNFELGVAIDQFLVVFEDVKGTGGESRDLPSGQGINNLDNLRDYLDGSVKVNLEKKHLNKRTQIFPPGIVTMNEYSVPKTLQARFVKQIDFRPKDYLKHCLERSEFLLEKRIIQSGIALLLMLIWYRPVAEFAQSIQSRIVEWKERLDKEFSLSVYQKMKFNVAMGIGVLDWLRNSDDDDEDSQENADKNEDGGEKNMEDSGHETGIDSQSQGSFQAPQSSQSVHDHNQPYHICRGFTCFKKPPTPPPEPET

Poly(dT) showed a Kd of 40 nM.
